The values below come from patent US20040063188A1.

The assay deals with recombinant HPV-16 L1 VLPs (baculovirus-derived, from Sf-9S insect cells) (human papillomavirus type 16) (UniProt P03101). Briefly: ELISA; 1000 ng VLPs mixed with infected-cell supernatants; reference is the same pair with VLPs in buffer or in sucrose (FIG. 11). (ELISA stands for enzyme-linked immunosorbent assay.)
UniProt P03101, sequence (P03101 whole entry): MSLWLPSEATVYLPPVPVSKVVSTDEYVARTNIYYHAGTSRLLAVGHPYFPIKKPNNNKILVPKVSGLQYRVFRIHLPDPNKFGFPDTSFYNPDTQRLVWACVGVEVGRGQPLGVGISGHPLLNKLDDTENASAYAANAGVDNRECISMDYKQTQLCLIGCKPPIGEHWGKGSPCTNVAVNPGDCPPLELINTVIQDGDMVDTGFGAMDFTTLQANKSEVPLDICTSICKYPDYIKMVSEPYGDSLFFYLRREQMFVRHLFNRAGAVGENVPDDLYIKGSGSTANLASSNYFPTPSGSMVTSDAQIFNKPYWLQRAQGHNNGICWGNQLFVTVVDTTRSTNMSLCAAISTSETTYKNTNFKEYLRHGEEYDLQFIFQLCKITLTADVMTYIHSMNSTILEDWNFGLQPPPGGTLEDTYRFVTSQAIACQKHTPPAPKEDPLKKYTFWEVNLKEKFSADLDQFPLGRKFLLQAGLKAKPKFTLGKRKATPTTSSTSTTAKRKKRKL

Regarding H16.V5 murine monoclonal antibody, the fold decrease in binding activity worked out at 5 fold.
